Experimental data from patent US20120184016A1, “NOVEL PROTEIN AND GENE THAT CODES THEREFOR” (priority 2009, published 2012).
Where “and” joins values, the source holds several entries; their conditions need not be identical. Equal entries are not always repeated.

Legend:
[1] = Sialyltransferase activity of crude enzyme solution (14C CMP-NeuAc transfer to lactose); assay type: biochemical; details: crude enzyme extraction solution from transformed E. coli; with acceptor (120 mM lactose); 30° C. for 30 minutes; duplicate
[2] = Confirmation of β-galactoside-α2,6-sialyltransferase activity with pyridylaminated lactose, HPLC; assay type: biochemical; details: enzyme expressed by E. coli transformed with SHIZ119-N1C0/pTrc99A
Method: The linkage mode of sialic acid transferred to the sugar acceptor substrate can be determined by, but is not limited to, any procedure known to those skilled in the art, for example, a method using a pyridylaminated sugar chain or nuclear magnetic resonance spectroscopy (NMR) of the reaction product. The method using a pyridylaminated sugar chain involves an enzyme reaction using the pyridylaminated sugar chain as the sugar acceptor substrate. More specifically, an enzyme reaction is performed using pyridylaminated lactose (Galβ1-4Glc-PA, manufactured by Takara Bio Inc.) as a sugar acceptor substrate and CMP-NeuAc as a sugar donor substrate, and the reaction product is analyzed by high performance liquid chromatography (HPLC). From the retention time of the reaction product, the position at which sialic acid was transferred is determined.
Then, to determine the linkage mode of sialic acid, a reaction using PA-lactose as a substrate was performed. The enzyme reaction was performed using the resulting crude enzyme solution and a pyridylaminated sugar chain as the sugar acceptor substrate. As the pyridylaminated sugar chain, pyridylaminated lactose (Galβ1-4Glc-PA, manufactured by Takara Bio Inc.) was used. […] The analysis was performed under the following conditions: flow rate: 1 mL/min, column temperature: 40° C., detection: fluorescence (Ex: 320 nm, Em: 400 nm). […]

[3] = Optimum pH and optimum temperature for sialyltransferase enzyme activity; assay type: biochemical; details: purified enzyme
From the text: The optimum pH and the optimum temperature of the recombinant β-galactoside-α2,6-sialyltransferase SHIZ119-N1C0 derived from the JT-SHIZ-119 strain were investigated using the purified enzyme prepared in Example 3.
Acetate buffer (pH 4.0 to 5.0), cacodylate buffer (pH 5.0 to 6.0), Bis-Tris buffer (pH 6.0 to 7.0), phosphate buffer (pH 7.0 to 8.0), TAPS buffer (pH 8.0 to 9.0), CHES buffer (pH 9.0 to 10.0), and CAPS buffer (pH 10.0 to 11.0) were each prepared and were used for enzyme activity measurement at 30° C. at various pH levels.
The enzyme activity was measured at every increment of 5° C. starting from 5° C. up to 50° C. using cacodylate buffer (pH 5.0).

[4] = Confirmation of neuraminidase activity (long reaction, HPLC); assay type: biochemical; details: purified enzyme; PA-6′-sialyllactose signal decreased, PA-lactose signal increased with reaction time; FIG. 3-1
Method: In the process described in Example 2(6), the reaction using the purified enzyme solution of the JT-SHIZ-119-derived recombinant β-galactoside-α2,6-sialyltransferase prepared in Example 3 was performed for a long time. The signal of the reaction product (PA-6′-sialyllactose, retention time: 4.02 min) decreased and the signal of the PA-lactose (retention time: 3.73 min), which was the original sugar acceptor substrate, increased in accordance with an increase in reaction time (FIG. 3-1).

[5] = test system: JT-SHIZ-119-derived recombinant β-galactoside-α2,6-sialyltransferase N1C0 (neuraminidase activity); assay: Substrate specificity of neuraminidase activity with PA-sugar chains, HPLC; assay type: biochemical, Photobacterium leiognathi strain JT-SHIZ-119; details: PA-sugar chains with α2,3-, α2,6- or α2,8-linked sialic acid; 30° C. for 18 hours
Method: The substrate specificity of neuraminidase, that is, the linkage mode of sialic acid to a sugar chain that is cleaved by the neuraminidase can be determined by, but not limited to, a method using a pyridylaminated sugar chain. More specifically, the enzyme reaction by neuraminidase is performed using PA sugar chains in which sialic acid is linked by α2,3-linkage, α2,6-linkage, or α2,8-linkage (for example, pyridylaminated sugar chains such as PA-Sugar Chain 029, PA-Sugar Chain 023, and PA-Sugar Chain 034 available from Takara Bio Inc.). The reaction product is analyzed by high performance liquid chromatography, and the amount of sialic acid that was cleaved is calculated from the retention time and peak area of the reaction product.
To reveal the specificity of the neuraminidase activity of the JT-SHIZ-119-derived recombinant β-galactoside-α2,6-sialyltransferase N1C0, reactions using a PA-sugar chain shown in Table 4, to which sialic acid is linked via α2,3-, α2,6-, or α2,8-linkage (PA-Sugar Chain 029, PA-Sugar Chain 023, or PA-Sugar Chain 034, manufactured by Takara Bio Inc.) as a substrate were performed.
To a purified enzyme solution of the JT-SHIZ-119-derived recombinant β-galactoside-α2,6-sialyltransferase N1C0 (equivalent to 0.6 U as sialyltransferase activity), 1.5 μL of a 10 pmol/μL PA-sugar chain was added, followed by reaction at 30° C. for 18 hours. After completion of the reaction, the reaction solution was treated at 100° C. for 2 minutes to inactivate the enzyme, followed by HPLC to analyze the reaction product. In the case of using PA-Sugar Chain 023 as the substrate, the pyridylaminated sugar chain was eluted and analyzed under the same conditions as those in Example 1. In the case of using PA-Sugar Chain 029 or PA-Sugar Chain 034 as the substrate, the elution was performed using eluent A (100 mM acetate-triethylamine, pH 5.0) and eluent B (100 mM acetate-triethylamine containing 0.5% n-butanol, pH 5.0) with a linear gradient of 0 to 100% eluent B (0 to 35 min), 100% eluent B (35 to 50 min), and then a linear gradient of 100% to 30% eluent B (51 to 75 min). The analysis was performed under the conditions of Example 1. FIGS. 3-2 to 3-8 show the results.

B1: SHIZ119-N1C0 (protein)
chain: MCNDNQNTVDVVVSTVNDNVIENNTYQVKPIDTPTTFDSYSWIQTCGTPILKDDEKYSLSFDFVAPELDQDEKFCFEFTGDVDGKRYVTQTNLTVVAPTLEVYVDHASLPSLQQLMKIIQQKNEYSQNERFISWGRIGLTEDNAEKLNAHIYPLAGNNTSQELVDAVIDYADSKNRLNLELNTNTAHSFPNLAPILRIISSKSNILISNINLYDDGSAEYVNLYNWKDTEDKSVKLSDSFLVLKDYFNGISSEKPSGIYGRYNWHQLYNTSYYFLRKDYLTVEPQLHDLREYLGGSLKQMSWDGFSQLSKGDKELFLNIVGFDQEKLQQEYQQSELPNFVFTGTTTWAGGETKEYYAQQQVNVVNNAINETSPYYLGREHDLFFKGHPRGGIINDIILGSFNNMIDIPAKVSFEVLMMTGMLPDTVGGIASSLYFSIPAEKVSFIVFTSSDTITDREDALKSPLVQVMMTLGIVKEKDVLFWSDLPDCSSGVCIAQY
modifications: beta-galacoside-alpha-2,6-sialyltransferase from phorobacterium leiognathi (without signal peptide)
Question: Which “Transferred NeuAc” value [1] does the source give for B1 here?
Answer: 7786 cpm and 8446 cpm

Question: What about the “reaction product with PA-lactose and CMP-NeuAc (linkage mode of transferred sialic acid)” value [2] of the same molecule?
Answer: PA-6′-sialyllactose (Neu5Acα2-6Galβ1-4Glc-PA) was detected

Question: What about the “pH at which sialyltransferase enzyme activity is the highest (optimum pH)” value ([3]; 30° C., pH 4.0 to 11.0, FIG. 2-1) of the same molecule?
Answer: 5.0

Question: And the “temperature at which sialyltransferase enzyme activity is the highest (optimum temperature)” value ([3]; cacodylate buffer (pH 5.0), 5° C. up to 50° C., FIG. 2-2)?
Answer: 35 °C

Question: What about the “neuraminidase activity (in words)” value [4] of the same molecule?
Answer: also has neuraminidase activity

Question: What about the “specificity of neuraminidase activity (linkage mode)” value [5] of the same molecule?
Answer: specific to sialic acid of α2,6-linkage
